Experimental data published in article PMC9809158 (Nature structural & molecular biology, 2022).
Values joined by “and” are separate entries in the source; they are usually repeats but may differ in a detail not shown here. Equal values may be shown once. Read-outs that look alike come from different tables or passages of the source.

Assays:
[1] = target: full-length NaVSp1 (from His-MBP-NaVSp1), reconstituted in lipid nanodiscs or amphipol A8-35 (Silicibacter pomeroyi); test: SEC-MALS
[2] = target: NaVAb1p (Alcanivorax borkumensis NaVAb1 'pore only' protein), crystallised from bicelles (Alcanivorax borkumensis); test: crystal structure
[3] = target: T1, full-length NaVSp1 (from His-MBP-NaVSp1), reconstituted in lipid nanodiscs or amphipol A8-35 (Silicibacter pomeroyi); test: SEC-MALS
T1 chain: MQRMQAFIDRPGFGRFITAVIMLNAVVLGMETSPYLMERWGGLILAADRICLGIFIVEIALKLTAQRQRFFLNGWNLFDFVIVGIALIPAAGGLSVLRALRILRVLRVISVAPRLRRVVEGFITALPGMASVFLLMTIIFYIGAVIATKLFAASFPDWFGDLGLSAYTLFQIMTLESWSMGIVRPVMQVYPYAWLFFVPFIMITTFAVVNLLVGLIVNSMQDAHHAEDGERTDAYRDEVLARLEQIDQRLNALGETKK

[4] = target: full-length NaVAe1 with C-terminal GFP (Alkalilimnicola ehrlichii, entry strain …, UniProt Q0ABW0); test: fluorescence-detection size-exclusion chromatography
[5] = target: full-length NaVSp1 with C-terminal GFP (Silicibacter (Ruegeria) pomeroyi, entry …, UniProt F7IVA8); test: as above

full-length NaVSp1 (from His-MBP-NaVSp1), reconstituted in lipid nanodiscs or amphipol A8-35 (natural protein)
stoichiometry N [1]: 4 and 8

NaVAb1p (Alcanivorax borkumensis NaVAb1 'pore only' protein), crystallised from bicelles (domain or fragment)
stoichiometry N [2]: 4

B1: sFab SAT09 (synthetic Fab from phage display, selected on NaVAe1/Sp1CTD in nanodiscs) (Fab, V domains shown)
VH: EVQLVESGGGLVQPGGSLRLSCAASGFNFSSSSIHWVRQAPGKGLEWVASISSSSGSTSYADSVKGRFTISADTSKNTAYLQMNSLRAEDTAVYYCARTYGWYYSWWWAFDYWGQGTLVTVSS
VL: DIQMTQSPSSLSASVGDRVTITCRASQSVSSAVAWYQQKPGKAPKLLIYSASSLYSGVPSRFSGSRSGTDFTLTISSLQPEDFATYYCQQGDPRLVTFGQGTKVEIK
stoichiometry N [3]: 2 SAT09 sFabs to one channel
binding result [4]: binds
binding result [5]: binds
